Measurements from patent US20230330196.

Molecular target: programmed death-1 homolog (PD-1H) of mouse mononuclear bone marrow cells (UniProt Q9D659)
Sequence (Q9D659 33-308): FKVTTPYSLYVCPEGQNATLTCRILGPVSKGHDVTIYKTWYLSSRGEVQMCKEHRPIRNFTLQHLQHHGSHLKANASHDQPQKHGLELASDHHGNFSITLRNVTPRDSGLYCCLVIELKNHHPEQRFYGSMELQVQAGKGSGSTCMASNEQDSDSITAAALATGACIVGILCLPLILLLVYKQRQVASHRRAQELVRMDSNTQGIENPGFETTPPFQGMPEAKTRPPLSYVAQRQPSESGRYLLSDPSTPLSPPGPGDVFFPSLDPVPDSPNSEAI

“MMP-13 (added to mouse osteoclast cultures)” was tested, and the “OCL fusion and activation, ERK1/2 phosphorylation, NFATc1 and DC-STAMP upregulation in Pd-1h-/- versus WT OCLs” value was “While MMP-13 induced WT OCL fusion and activation, these effects were completely blocked in Pd-1h-/- OCLs in tandem with a loss in MMP-13 induced ERK1/2 phosphorylation, NFATc1 and DC-STAMP upregulation”.
